Laboratory results: US20170233490A1 (Hoffmann-La Roche, published 2017)

T1: human HER4 Extracellular Domain (ECD) (human, UniProt Q15303 26-651)
T1 construct: also called Her4 ECD; HER4-ECD
T1 sequence: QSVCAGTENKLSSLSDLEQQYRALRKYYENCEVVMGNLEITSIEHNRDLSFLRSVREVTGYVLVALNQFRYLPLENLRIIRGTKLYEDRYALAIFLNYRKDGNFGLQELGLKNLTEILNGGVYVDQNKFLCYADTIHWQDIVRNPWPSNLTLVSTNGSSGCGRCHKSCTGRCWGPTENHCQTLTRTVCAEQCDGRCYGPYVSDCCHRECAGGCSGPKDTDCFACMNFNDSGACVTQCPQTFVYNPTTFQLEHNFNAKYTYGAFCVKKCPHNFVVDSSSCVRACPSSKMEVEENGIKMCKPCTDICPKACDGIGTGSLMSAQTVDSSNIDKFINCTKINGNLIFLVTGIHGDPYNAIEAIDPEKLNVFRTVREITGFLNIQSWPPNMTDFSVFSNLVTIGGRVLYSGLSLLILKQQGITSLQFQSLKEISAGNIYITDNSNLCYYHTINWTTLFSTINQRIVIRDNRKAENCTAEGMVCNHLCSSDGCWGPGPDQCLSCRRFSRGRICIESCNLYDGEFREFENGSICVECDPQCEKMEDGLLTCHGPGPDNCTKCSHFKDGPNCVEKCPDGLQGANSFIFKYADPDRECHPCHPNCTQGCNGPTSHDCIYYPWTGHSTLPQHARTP

T2: HER4 ECD-HRG complex (human, UniProt Q15303 26-651)
T2 construct: HER4 ECD preincubated with a 5-fold molar excess of Heregulin
T2 sequence 1: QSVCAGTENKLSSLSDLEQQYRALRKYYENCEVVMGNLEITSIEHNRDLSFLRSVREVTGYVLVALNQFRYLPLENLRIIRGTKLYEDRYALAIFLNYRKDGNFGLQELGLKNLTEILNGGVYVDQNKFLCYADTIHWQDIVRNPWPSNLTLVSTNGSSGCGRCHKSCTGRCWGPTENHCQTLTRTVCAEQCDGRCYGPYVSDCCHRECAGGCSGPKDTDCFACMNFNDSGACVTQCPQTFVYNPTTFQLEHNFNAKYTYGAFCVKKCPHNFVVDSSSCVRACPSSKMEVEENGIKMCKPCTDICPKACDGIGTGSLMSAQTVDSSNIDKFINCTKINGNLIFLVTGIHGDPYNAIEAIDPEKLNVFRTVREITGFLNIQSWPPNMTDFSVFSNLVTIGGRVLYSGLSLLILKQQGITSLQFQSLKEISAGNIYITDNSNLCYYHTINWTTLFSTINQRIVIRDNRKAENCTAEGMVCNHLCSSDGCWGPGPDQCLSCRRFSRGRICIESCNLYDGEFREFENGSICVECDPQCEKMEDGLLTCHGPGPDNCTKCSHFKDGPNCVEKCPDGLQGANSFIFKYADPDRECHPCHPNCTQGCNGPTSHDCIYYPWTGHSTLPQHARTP
T2 sequence 2: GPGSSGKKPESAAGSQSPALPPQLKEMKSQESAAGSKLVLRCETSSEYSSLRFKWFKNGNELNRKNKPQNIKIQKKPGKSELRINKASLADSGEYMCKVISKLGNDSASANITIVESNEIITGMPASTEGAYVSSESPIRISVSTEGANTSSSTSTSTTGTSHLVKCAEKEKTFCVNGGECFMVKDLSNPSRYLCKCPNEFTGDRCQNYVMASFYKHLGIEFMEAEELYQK


Columns and labels:
[1] = biological target: T3, human HER3 Extracellular Domain (ECD) (human, UniProt P21860 20-643); assay: SPR (Biacore) sensorgram overlay; the legend gives 100 nM, antibody * Her-3 ECD interaction without Heregulin; buffer reference (curve 5) stays at 0 RU
T3 construct: human recombinant, 68 kDa; 'closed' conformation without ligand; also called Her3 ECD; Her-3 ECD

[2] = biological target: T1, human HER4 Extracellular Domain (ECD); assay: stated in the epitope binning example
[3] = biological target: T4, HER3 ECD-HRG complex (human, UniProt P21860 20-643); assay: SPR (Biacore B3000, 25 °C), antibody captured by RAM-Fcγ; 90 nM Heregulin*Her-3 ECD complex injected
T4 construct: HER3 ECD preincubated with a 3- to 6-fold molar excess of Heregulin ('open' conformation); biotinylated Her3-ECD in the ribosome display; also called HER3-ECD/HRG1β
Description: A CMS series sensor was mounted into the system and was normalized in HBS-ET buffer (10 mM HEPES pH 7.4, 150 mM NaCl, 3 mM EDTA, 0.005% w/v Tween 20) according to the manufacturer's instructions. The sample buffer was the system buffer supplemented with 1 mg/ml CMD (Carboxymethyldextran). The system operated at 25° C. 10000 RU RAM-Fcγ (relative units of Fcγ-fragment Rabbit Anti-Mouse IgG/Jackson Laboratories) were immobilized according to the manufacturer's instructions using EDC/NHS chemistry on all flow cells. The sensor was deactivated using 1M ethanolamine. Analytes in solution were injected at 100 μl/min at different concentration steps of 0 nM, 1.1 nM, 3.7 nM, 11.1 nM, 33.1 nM and 90 nM for 2 min. The dissociation was monitored for 5 min. Acidic regeneration of the sensor surface was achieved using three consecutive injections of 10 mM Glycine pH 1.7 at 30 μl/min for 60 sec. Kinetic data were evaluated according to a Langmuir fit.

[4] = biological target: T3, human HER3 Extracellular Domain (ECD); assay: SPR Biacore 3000, 37 C
[5] = biological target: T2, HER4 ECD-HRG complex; assay: SPR Biacore 3000, 37 C
[6] = biological target: T4, HER3 ECD-HRG complex; assay: SPR Biacore 3000, 37 C
[7] = biological target: T1, human HER4 Extracellular Domain (ECD); assay: SPR Biacore 3000, 37 C

| binding result [1] | binding result [2] | binding result [3] | Kd [4] [nM] | MR [4] | koff [4] [s⁻¹] | kon [4] [M⁻¹ s⁻¹] | t/2diss [4] [min] | Kd [5] [nM] | MR [5] | koff [5] [s⁻¹] | kon [5] [M⁻¹ s⁻¹] | t/2diss [5] [min] | Kd [6] [nM] | MR [6] | koff [6] [s⁻¹] | kon [6] [M⁻¹ s⁻¹] | t/2diss [6] [min] | binding result [7] | Binder |
| --- | --- | --- | --- | --- | --- | --- | --- | --- | --- | --- | --- | --- | --- | --- | --- | --- | --- | --- | --- |
| binds | no binding | binds |  |  |  |  |  |  |  |  |  |  |  |  |  |  |  |  | anti-HER3 antibody M-08-11 (antibody, V domains shown, also called M-011; <Her3> M-08-11) VH: QAYLQQSGAELMRPGASVRMSCQASGYTFTSYTIHWLKQTPRQGLEWIGAIYPRNGDFSYNQKFKDKASLTVDTSSSTAYMHLSSLTSEDSAVYFCARTINYGDWFAYWGQGTLVTVSA VL: DIQMIQSPASLFVSEGETVIITCRASENIYSNLAWYHQKKGKSPQVLVYAAIKLADGVPLRFSGSGSGTQFSLKINSLQSEDFGSYYCQHFWGPPYTFGSGTNLEIK |
|  |  |  | 23 | 0.7 | 0.00044 | 19000 | 26 | 211 | 0.8 | 0.038 | 180000 | 0.3 | 10 | 0.8 | 0.002 | 190000 | 6 | no binding | humanized variant VH-A/VL-D of anti-HER3 antibody M-05-74 (antibody, V domains shown, also called humanized DIB-74) VH: QVQLVQSGAELKKPGASVKVSCRTSGYTLTDYWIHWVRQAPGQGLEWMGYINPYTGYTESNQKFKDRVAMTRDASINTAYMELTSLRSDDTAVYYCARPYYYGDYWGQGTLVTVSS VL: EIVLTQSPATLSLSPGERATLSCSASSSVSYMHWFQQKPGQPPRLLIYSTSNLASGIPARFSGSGSGTDFTLTISSLEPEDFAVYYCQQRSSYPFTFGGGTKVEIK |
